Test results: patent publication US20230080842A1 (WUHAN YZY BIOPHARMA, published 2023)
Values belong to the binder of their own block, whether it stands above or below them.

Columns and labels:
Experiment in all cases: ELISA, plate coated with His-tagged antigen
Human PD-1 = target: T1, Human PD-1 (human, UniProt Q15116 25-170)
T1 construct: also called PD-1 antigen; not shown: His tag

Human VEGFA = target: T2, Human VEGFA (human, UniProt P15692 207-395)
T2 construct: also called VEGF antigen; not shown: His tag
T2 sequence: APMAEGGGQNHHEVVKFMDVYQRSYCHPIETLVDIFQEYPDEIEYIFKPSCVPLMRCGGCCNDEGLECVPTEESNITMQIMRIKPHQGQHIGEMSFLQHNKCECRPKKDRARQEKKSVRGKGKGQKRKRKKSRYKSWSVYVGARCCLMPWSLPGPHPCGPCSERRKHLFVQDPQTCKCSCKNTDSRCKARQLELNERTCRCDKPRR

Human TGF-β1 = target: T3, Human TGF-β1 (human, UniProt P01137 279-390)
T3 construct: also called TGF-01; TGF-β1 antigen; not shown: His tag
T3 sequence (P01137 279-390 limits assumed): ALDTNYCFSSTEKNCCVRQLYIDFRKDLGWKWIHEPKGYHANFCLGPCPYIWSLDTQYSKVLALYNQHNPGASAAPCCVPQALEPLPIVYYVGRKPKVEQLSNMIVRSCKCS

Human TIGIT = target: T4, Human TIGIT (human, UniProt Q495A1 22-141)
T4 construct: also called TIGIT antigen; not shown: His tag
T4 sequence: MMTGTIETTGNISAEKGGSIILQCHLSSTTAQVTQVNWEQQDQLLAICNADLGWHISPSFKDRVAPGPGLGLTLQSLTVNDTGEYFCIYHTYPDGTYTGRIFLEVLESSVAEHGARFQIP

T1 sequence (Q15116 25-170): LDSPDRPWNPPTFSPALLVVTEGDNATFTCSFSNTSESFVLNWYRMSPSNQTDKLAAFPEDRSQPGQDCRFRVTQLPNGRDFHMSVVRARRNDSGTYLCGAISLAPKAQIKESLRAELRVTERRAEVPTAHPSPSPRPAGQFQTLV

EC50 (Human PD-1): 0.45 nM | EC50 (Human VEGFA): 0.063 nM
B1: Y206-A2 (bispecific antibody, human IgG1, kappa)
light: not shown
heavy: EVQLVESGGGLVQPGGSLRLSCAASGFTISDYWIHWVRQAPGKGLEWVAGITPAGGYTYYADSVKGRFTISADTSKNTAYLQMNSLRAEDTAVYYCARFVFFLPYAMDYWGQGTLVTVSSASTKGPSVFPLAPSSKSTSGGTAALGCLVKDYFPEPVTVSWNSGALTSGVHTFPAVLQSSGLYSLSSVVTVPSSSLGTQTYICNVNHKPSNTKVDKKVEPKSCDKTHTCPPCPAPPVAGPSVFLFPPKPKDTLMISRTPEVTCVVVDVSHEAPEVQFNWYVDGVEVHNAKTKPREEQFNSTFRVVSVLTVVHQDWLNGKEYKCKVSNKGLPAPIEKTISKTKGQPREPQVYTLPPSRDELTKNQVSLTCLVKGFYPSDIAVEWESNGQPENNYKTTPPVLDSDGSFFLYSKLTVDKSRWQQGNVFSCSVMHEALHNHYTQKSLSLSPGAGGGGSGGGGSGGGGSGQVQLVESGGGVVQPGRSLRLDCKASGITFSNSGMHWVRQAPGKGLEWVAVIWYDGSKRYYADSVKGRFTISRDNSKNTLFLQMNSLRAEDTAVYYCATNDDYWGQGTLVTVSSGGGGSGGGGSGGGGSEIVLTQSPATLSLSPGERATLSCRASQSVSSYLAWYQQKPGQAPRLLIYDASNRATGIPARFSGSGSGTDFTLTISSLEPEDFAVYYCQQSSNWPRTFGQGTKVEIK
notes: structure 2 IgG(H)-ScFv, A series; IgG G631 (anti-VEGF), scFv 5C4 (anti-PD-1)

EC50 (Human TGF-β1): 0.0026 nM
B2: 3G12mAb (antibody, human IgG1, kappa, V domains shown)
VH: QVQLVQSGAEVKKPGSSVKVSCKASGYTFSSNVISWVRQAPGQGLEWMGGVIPIVDIANYAQRFKGRVTITADESTSTTYMELSSLRSEDTAVYYCASTLGLVLDAMDYWGQGTLVTVSS
VL: ETVLTQSPGTLSLSPGERATLSCRASQSLGSSYLAWYQQKPGQAPRLLIYGASSRAPGIPDRFSGSGSGTDFTLTISRLEPEDFAVYYCQQYADSPITFGQGTRLEIKR
notes: anti-TGF-β monoclonal antibody, human IgG1 constant domains, kappa

EC50 (Human TIGIT): 0.0831 nM
B3: 10A7mAb (antibody, human IgG1, kappa, V domains shown)
VH: EVQLVESGGGLTQPGKSLKLSCEASGFTFSSFTMHWVRQSPGKGLEWVAFIRSGSGIVFYADAVRGRFTISRDNAKNLLFLQMNDLKSEDTAMYYCARRPLGHNTFDSWGQGTLVTVSS
VL: DIVMTQSPSSLAVSPGEKVTMTCKSSQSLYYSGVKENLLAWYQQKPGQSPKLLIYYASIRFTGVPDRFTGSGSGTDYTLTITSVQAEDMGQYFCQQGINNPLTFGDGTKLEIKR
notes: anti-TIGIT monoclonal antibody, human IgG1 constant domains, kappa

EC50 (Human PD-1): 0.312 nM | EC50 (Human VEGFA): 0.0596 nM
B4: Y206-B2 (bispecific antibody, human IgG1, kappa)
light: not shown
heavy: EVQLVESGGGLVQPGGSLRLSCAASGFTISDYWIHWVRQAPGKGLEWVAGITPAGGYTYYADSVKGRFTISADTSKNTAYLQMNSLRAEDTAVYYCARFVFFLPYAMDYWGQGTLVTVSSASTKGPSVFPLAPSSKSTSGGTAALGCLVKDYFPEPVTVSWNSGALTSGVHTFPAVLQSSGLYSLSSVVTVPSSSLGTQTYICNVNHKPSNTKVDKKVEPKSCDKTHTCPPCPAPPVAGPSVFLFPPKPKDTLMISRTPEVTCVVVDVSHEAPEVQFNWYVDGVEVHNAKTKPREEQFNSTFRVVSVLTVVHQDWLNGKEYKCKVSNKGLPAPIEKTISKTKGQPREPQVYTLPPSRDELTKNQVSLTCLVKGFYPSDIAVEWESNGQPENNYKTTPPVLDSDGSFFLYSKLTVDKSRWQQGNVFSCSVMHEALHNHYTQKSLSLSPGAGGGGSGGGGSGGGGSGEIVLTQSPATLSLSPGERATLSCRASQSVSSYLAWYQQKPGQAPRLLIYDASNRATGIPARFSGSGSGTDFTLTISSLEPEDFAVYYCQQSSNWPRTFGQGTKVEIKGGGGSGGGGSGGGGSQVQLVESGGGVVQPGRSLRLDCKASGITFSNSGMHWVRQAPGKGLEWVAVIWYDGSKRYYADSVKGRFTISRDNSKNTLFLQMNSLRAEDTAVYYCATNDDYWGQGTLVTVSS
notes: structure 2 IgG(H)-ScFv, B series; IgG G631 (anti-VEGF), scFv 5C4 (anti-PD-1)
